Results as given in PMC4063770, “A Dimerized HMX1 Inhibits EPHA6/epha4b in Mouse and Zebrafish Retinas” (PLoS ONE, 2014).

Target: the molecule itself
Test: native gel or EMSA; lysate in non-denaturing lysis buffer (20 mM Tris-HCl, 137 mM NaCl, 10% glycerol, 1% Triton X-100, 2 mM EDTA, pH 8.0), 5 ug on a 4-15% gel run without SDS, compared with a denaturing gel; Western blot with anti-HA

B1: HA-tagged wild-type HMX1 (natural protein)
chain: not shown
notes: HMX1 (NKX5-3), wild type; also called HA-HMX1; source: HEK 293T, transfected, in lysate
stoichiometry N: 2
